The target in this test is adenomatous polyposis coli (APC) protein (endogenous, MDCK cells) (dog (endogenous in MDCK)). Description: co-IP.
In the case of “ΔN90 β-catenin (KT3-tagged, NH2-terminal 90 amino acids deleted) (from UniProt Q02248 91-781) (domain or fragment)”, the fold coimmunoprecipitated with APC protein relative to endogenous β-catenin turned out to be 3 fold. As for “ΔN131 β-catenin (KT3-tagged, NH2-terminal 131 amino acids deleted) (from UniProt Q02248 132-781) (domain or fragment)”, the fold coimmunoprecipitated with APC protein relative to endogenous β-catenin was found to be 3 fold. “ΔN151 β-catenin (KT3-tagged, NH2-terminal 151 amino acids deleted) (from UniProt Q02248 152-781) (domain or fragment)” had a fold coimmunoprecipitated with APC protein relative to endogenous β-catenin of 3 fold.

Source of the values: paper PMC2134296.
